Data from US6319685A (Unigene Laboratories, Inc., priority 1987, dated 2001).

Experiments:
[1] = specific alpha-amidating activity, conversion of Dansyl-D-Tyr-Val-Gly to Dansyl-D-Tyr-Val-CONH2; format: biochemical; details: CA-77 media
Protocol: These and other objects will become apparent from a thorough reading of the present disclosure. […] All specific activity units set forth herein are based upon the conversion of Dansyl-D-Try-Val-Gly-COOH to Dansyl-D-Tyr-Val-CONH2. One mU is defined as the amount of activity needed to convert one nanomole (nmole) of Dansyl-D-Tyr-Val-Gly-COOH to one nmole of Dansyl-D-Tyr-Val-CONH2 per minute at 37° C. and pH 7.0 in the presence of ascorbate ions at a concentration of 3 mM (based on total reaction mixture including enzyme, substrate, co-factors, etc.), molecular oxygen in a molar excess over substrate and a concentration of cupric ions effective to maximize activity (usually about 2 μM depending on the state of purity of the enzyme).
Each purification step can be monitored for both protein content and the level of alpha-amidation activity. This information is used to calculate the specific activity of the enzyme which serves as an indicator of the relative purity of the enzyme.
Sephacryl S-300 (Pharmacia) was equilibrated in 50 mM Tris HCl pH 7.0 and poured into a K 50/100 column (Pharmacia) according to the manufacturer's instructions. The bed volume of the column was approximately 1.3 liters. The Sample was loaded onto the column in a volume representing approximately 3 percent of the bed volume of the column. Proteins were eluted from the column in 50 mM Tris HCl pH 7.0 at a flow rate of approximately 2 ml per minute.
The reaction mixture for the conversion of the monodansyl substrate contained:
The samples were prepared in duplicate and incubated at 37° C. for 10, 20 and 30 minutes time periods. The enzymatic reaction was halted by the addition of 10 ul 500 mM EDTA.

[2] = nonspecific proteolytic activity of enzyme preparation; format: biochemical; details: CA-77 media, after DEAE and Sephacryl 300-SF

nonspecific proteolytic activity [2]: free of nonspecific proteolytic activity
B1: alpha-amidating enzyme (CA-77): alpha-amidating enzyme derived from CA-77 cell tissue culture media (protein, UniProt P14925 36-976, looked up)
Peptidylglycine …: FKETTRSFSNECLGTIGPVTPLDASDFALDIRMPGVTPKESDTYFCMSMRLPVDEEAFVIDFKPRASMDTVHHMLLFGCNMPSSTGSYWFCDEGTCTDKANILYAWARNAPPTRLPKGVGFRVGGETGSKYFVLQVHYGDISAFRDNHKDCSGVSVHLTRVPQPLIAGMYLMMSVDTVIPPGEKVVNADISCQYKMYPMHVFAYRVHTHHLGKVVSGYRVRNGQWTLIGRQNPQLPQAFYPVEHPVDVTFGDILAARCVFTGEGRTEATHIGGTSSDEMCNLYIMYYMEAKYALSFMTCTKNVAPDMFRTIPAEANIPIPVKPDMVMMHGHHKEAENKEKSALMQQPKQGEEEVLEQGDFYSLLSKLLGEREDVHVHKYNPTEKTESGSDLVAEIANVVQKKDLGRSDAREGAEHEEWGNAILVRDRIHRFHQLESTLRPAESRAFSFQQPGEGPWEPEPSGDFHVEEELDWPGVYLLPGQVSGVALDSKNNLVIFHRGDHVWDGNSFDSKFVYQQRGLGPIEEDTILVIDPNNAEILQSSGKNLFYLPHGLSIDTDGNYWVTDVALHQVFKLDPHSKEGPLLILGRSMQPGSDQNHFCQPTDVAVEPSTGAVFVSDGYCNSRIVQFSPSGKFVTQWGEESSGSSPRPGQFSVPHSLALVPHLDQLCVADRENGRIQCFKTDTKEFVREIKHASFGRNVFAISYIPGFLFAVNGKPYFGDQEPVQGFVMNFSSGEIIDVFKPVRKHFDMPHDIVASEDGTVYIGDAHTNTVWKFTLTEKMEHRSVKKAGIEVQEIKEAEAVVEPKVENKPTSSELQKMQEKQKLSTEPGSGVSVVLITTLLVIPVLVLLAIVMFIRWKKSRAFGDHDRKLESSSGRVLGRFRGKGSGGLNLGNFFASRKGYSRKGFDRVSTEGSDQEKDEDDGTESEEEYSAPLPKPAPSS
activity ([1]; after DEAE and Sephacryl 300-SF): at least 50 mU/mg protein | specific activity ([1]; fractions from DEAE weak anion exchange cartridge): 10-15 mU/mg
